How the values were obtained:
[1] = target: T1, Clostridium difficile toxin B (TcdB) (Clostridium difficile, UniProt P18177 2-2366); test: ELISA, plate coated with 1 ug/ml TcdB
T1 construct: also called TxB

[2] = target: T1, Clostridium difficile toxin B (TcdB); test: sandwich ELISA: TcdB coated, Habab titrated, TcdA at 40 ng/ml detected
[3] = target: T1, Clostridium difficile toxin B (TcdB); test: cell-based or functional assay

T1 sequence (P18177 2-2366 limits assumed): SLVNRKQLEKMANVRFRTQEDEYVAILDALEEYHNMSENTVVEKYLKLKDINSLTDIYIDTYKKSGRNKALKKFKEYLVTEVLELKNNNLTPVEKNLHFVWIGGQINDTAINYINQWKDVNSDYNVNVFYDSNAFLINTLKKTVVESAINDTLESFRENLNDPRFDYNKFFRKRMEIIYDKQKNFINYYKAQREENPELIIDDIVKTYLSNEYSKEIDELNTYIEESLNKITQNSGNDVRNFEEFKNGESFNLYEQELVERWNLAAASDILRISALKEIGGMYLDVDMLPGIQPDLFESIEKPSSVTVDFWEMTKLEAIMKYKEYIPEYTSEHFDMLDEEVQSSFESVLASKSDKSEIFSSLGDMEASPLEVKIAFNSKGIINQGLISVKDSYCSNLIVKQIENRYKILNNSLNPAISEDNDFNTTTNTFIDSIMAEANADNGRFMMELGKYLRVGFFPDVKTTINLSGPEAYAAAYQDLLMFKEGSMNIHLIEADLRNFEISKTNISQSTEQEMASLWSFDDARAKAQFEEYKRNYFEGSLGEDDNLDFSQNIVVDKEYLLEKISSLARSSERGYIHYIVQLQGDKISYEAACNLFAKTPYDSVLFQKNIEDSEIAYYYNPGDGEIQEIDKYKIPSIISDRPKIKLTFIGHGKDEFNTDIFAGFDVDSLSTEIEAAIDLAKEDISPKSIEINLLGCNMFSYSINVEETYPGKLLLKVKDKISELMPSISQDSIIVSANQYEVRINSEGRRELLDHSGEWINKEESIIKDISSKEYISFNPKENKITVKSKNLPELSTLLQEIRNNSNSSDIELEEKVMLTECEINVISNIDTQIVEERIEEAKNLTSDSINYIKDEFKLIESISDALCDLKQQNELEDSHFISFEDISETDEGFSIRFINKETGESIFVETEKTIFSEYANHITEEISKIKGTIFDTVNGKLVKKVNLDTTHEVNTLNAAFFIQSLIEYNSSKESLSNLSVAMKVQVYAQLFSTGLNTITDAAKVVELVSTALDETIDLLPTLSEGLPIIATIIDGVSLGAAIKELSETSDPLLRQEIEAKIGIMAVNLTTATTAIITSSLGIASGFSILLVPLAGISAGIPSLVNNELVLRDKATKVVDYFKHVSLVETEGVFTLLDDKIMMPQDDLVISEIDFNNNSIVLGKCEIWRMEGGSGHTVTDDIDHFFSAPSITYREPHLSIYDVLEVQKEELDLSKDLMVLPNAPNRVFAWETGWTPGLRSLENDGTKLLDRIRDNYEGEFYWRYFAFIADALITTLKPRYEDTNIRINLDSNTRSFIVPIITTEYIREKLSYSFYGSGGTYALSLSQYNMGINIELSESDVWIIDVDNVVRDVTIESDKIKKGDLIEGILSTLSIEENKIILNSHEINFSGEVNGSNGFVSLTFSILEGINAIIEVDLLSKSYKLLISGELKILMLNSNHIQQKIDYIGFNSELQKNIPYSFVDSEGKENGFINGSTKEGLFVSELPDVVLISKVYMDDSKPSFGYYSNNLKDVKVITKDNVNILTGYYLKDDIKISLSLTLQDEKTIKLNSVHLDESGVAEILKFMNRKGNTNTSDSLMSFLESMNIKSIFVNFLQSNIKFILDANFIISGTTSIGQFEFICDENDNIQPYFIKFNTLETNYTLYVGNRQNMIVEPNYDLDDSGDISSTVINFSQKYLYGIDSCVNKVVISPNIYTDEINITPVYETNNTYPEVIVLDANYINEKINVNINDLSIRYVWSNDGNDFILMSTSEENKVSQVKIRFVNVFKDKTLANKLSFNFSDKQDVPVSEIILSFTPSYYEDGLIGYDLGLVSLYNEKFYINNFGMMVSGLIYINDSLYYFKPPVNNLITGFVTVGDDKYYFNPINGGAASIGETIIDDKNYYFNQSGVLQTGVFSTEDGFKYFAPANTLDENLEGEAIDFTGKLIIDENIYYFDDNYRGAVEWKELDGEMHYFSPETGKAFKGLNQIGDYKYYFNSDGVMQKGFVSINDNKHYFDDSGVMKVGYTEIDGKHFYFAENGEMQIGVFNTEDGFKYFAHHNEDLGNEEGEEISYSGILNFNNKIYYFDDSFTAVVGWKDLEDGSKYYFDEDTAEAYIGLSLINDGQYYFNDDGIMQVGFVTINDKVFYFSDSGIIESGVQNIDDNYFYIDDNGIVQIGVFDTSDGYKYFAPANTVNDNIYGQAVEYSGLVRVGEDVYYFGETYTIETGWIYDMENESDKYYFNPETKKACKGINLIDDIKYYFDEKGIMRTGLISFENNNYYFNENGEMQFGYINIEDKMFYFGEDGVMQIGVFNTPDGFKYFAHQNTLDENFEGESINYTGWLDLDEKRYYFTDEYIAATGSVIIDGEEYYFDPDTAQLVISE

B1: VHH peptide monomer E3 (VHH)
VHH: QVQLVESGGGLVQTGGSLRLSCASSGSIAGFETVTWSRQAPGKSLQWVASMTKTNNEIYSDSVKGRFIISRDNAKNTVYLQMNSLKPEDTGVYFCKGPELRGQGIQVTVSS
notes: also called VHH E3
EC50 (read off the curve) [1]: ~0.01 µg/mL

B2: ABAB-IgG1 tetra-specific, octameric binding agent (bispecific antibody)
heavy: not shown
light: QLQLVETGGGLVQPGGSLRLSCAASGFTFSDYVMTWVRQAPGKGPEWIATINTDGSTMRDDSTKGRFTISRDNAKNTLYLQMTSLKPEDTALYYCARGRVISASAIRGAVRGPGTQVTVSSGGGGSGGGGSGGGGSQVQLVESGGGLVQTGGSLRLSCASSGSIAGFETVTWSRQAPGKSLQWVASMTKTNNEIYSDSVKGRFIISRDNAKNTVYLQMNSLKPEDTGVYFCKGPELRGQGIQVTVSSRTVAAPSVFIFPPSDEQLKSGTASVVCLLNNFYPREAKVQWKVDNALQSGNSQESVTEQDSKDSTYSLSSTLTLSKADYEKHKVYACEVTHQGLSSPVTKSFNRGEC
notes: also called IgG-ABAB; IgG-ABBA
EC50 (read off the curve) [2]: ~0.05 µg/mL | neutralization of the TcdB cytopathic effect on Vero cells, fold potency over the Merck antibody [3]: ≥ 1000 fold

— patent US20180244760A1 (UNIVERSITY OF MARYLAND BALTIMORE, published 2018)
